Target: RecA recombinase (UniProt P0A7G6)
Conditions: second round manual capture from 1:10,000 pHPRT:pUC library; automated 59%; first round 2% and 1.35%

RecA recombinase, sequence (P0A7G6 2-353): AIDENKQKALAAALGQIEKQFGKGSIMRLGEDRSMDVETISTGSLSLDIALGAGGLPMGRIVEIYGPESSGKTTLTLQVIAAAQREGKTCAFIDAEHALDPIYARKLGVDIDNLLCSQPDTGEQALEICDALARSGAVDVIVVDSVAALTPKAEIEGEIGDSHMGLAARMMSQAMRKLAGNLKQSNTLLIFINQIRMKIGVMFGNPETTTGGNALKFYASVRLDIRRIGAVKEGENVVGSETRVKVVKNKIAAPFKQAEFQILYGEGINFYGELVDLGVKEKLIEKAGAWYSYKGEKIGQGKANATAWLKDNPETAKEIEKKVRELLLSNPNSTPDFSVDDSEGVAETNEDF

Substance: 318 bp biotinylated HPRT cssDNA probe (primers hExo3-2A and h/m300B)
- activity (% pHPRT clones): 76
